In PMC6448830 one finds percent of 2B4-transfected COS-7 cells binding A43-Fc (highest dose) data, which are given here for one substance.

The assay has as its target HA-2B4 (A. trivirgatus 2B4 ectodomain fused to human 2B4 from residue 219 to the stop codon), on COS-7 cells (Aotus trivirgatus | human) (UniProt Q9BZW8). The assay can be described thus: flow cytometry on cells; cells incubated with the Fc fusion protein (8 μg/mL or a range of concentrations), then anti-human IgG (Fc specific) mAb and anti-mouse IgG-PE; 20% rabbit serum and 1% fetal bovine serum in PBS.

A43-Fc fusion protein returned a percent of 2B4-transfected COS-7 cells binding A43-Fc (highest dose) of 80.9%.
